This is an account of results in paper PMC6100598, “Characterization of Small Molecules Inhibiting the Pro-Angiogenic Activity of the Zinc Finger Transcription Factor Vezf1” (Molecules : A Journal of Synthetic Chemistry and Natural …, 2018).

Values joined by “and” are separate entries in the source; they are usually repeats but may differ in a detail not shown here. Equal values may be shown once.

Data set [1] deals with T1, Vezf1 (recombinant His-Vezf1) (Mus musculus, UniProt Q5SXC4).
T1 construct: N-terminal His6 tag (pQE10), kept; E. coli XLBlue (MRF, T7); Ni-NTA; residue borders not given; native protein about 65 kDa, six C2H2 zinc fingers
T1 sequence (Q5SXC4 1-518): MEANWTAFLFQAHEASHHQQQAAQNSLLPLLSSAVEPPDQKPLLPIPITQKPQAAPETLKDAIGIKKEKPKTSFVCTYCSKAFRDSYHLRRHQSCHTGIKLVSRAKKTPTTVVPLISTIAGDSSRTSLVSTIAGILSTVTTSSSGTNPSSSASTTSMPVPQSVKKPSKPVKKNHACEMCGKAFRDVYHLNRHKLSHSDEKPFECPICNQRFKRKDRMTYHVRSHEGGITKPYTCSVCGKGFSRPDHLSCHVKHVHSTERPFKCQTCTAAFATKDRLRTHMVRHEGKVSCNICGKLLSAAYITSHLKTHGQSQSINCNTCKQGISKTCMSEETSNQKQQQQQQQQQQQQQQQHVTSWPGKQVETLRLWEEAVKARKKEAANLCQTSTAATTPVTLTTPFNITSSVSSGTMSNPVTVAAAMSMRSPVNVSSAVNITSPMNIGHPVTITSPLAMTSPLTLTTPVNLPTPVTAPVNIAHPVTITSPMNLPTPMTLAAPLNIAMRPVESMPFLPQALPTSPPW
The data set is described as follows: EMSA, inhibition of Vezf1 binding to […]-labelled DNA. Conditions: 1 μM or 640 nM (Figure 5C) Vezf1, 25 nM 32P-DNA (HS4-FPIII site), 10 min pre-incubation, 10 mM MgCl2, Hepes 7.5, room temperature; also called effective blocking concentration.

For data set [2], the target named is T1, Vezf1 (recombinant His-Vezf1). As to the kind of experiment: EMSA, single dose. The settings on record: 640 nM Vezf1, 25 nM 32P-DNA, 10 min pre-incubation; residual DNA binding, not per cent inhibition; value without compound not given.
For another data set, the target named is T2, Vezf1 (His-Vezf1) (UniProt Q5SXC4).
T2 sequence: T1 sequence (Q5SXC4 1-518)
The data set is described as follows: EMSA. Conditions: 20 mM Hepes pH 7.5, 10 mM MgCl2, 50 mM NaCl, 1 mM EDTA, 5 ng/uL poly dA.dT, 10 min at room temperature, 5% acrylamide gel in 0.5x TBE.

In the case of `O=C(O)c1ccccc1NC(c1ccccc1)c1ccc2cccnc2c1O` (centres unmarked) [compound 1, NSC1012], in data set [1], the “Activity Concentration” value is given as ~ 500 μM.
`Cc1c(S(=O)(=O)O)ccc(N=Nc2c(O)c(C(=O)O)cc3ccccc23)c1Cl` [compound 2, NSC16087]: the “% DNA Bound in EMSA (500 μM)” value in data set [2] was 22.56%.
On the same count and under the same terms, next, `NC(=O)c1nnn(Cc2cc(Cl)c(C(=O)c3ccc(Cl)cc3)c(Cl)c2)c1N` [compound 3, NSC609974]: 38.45%.
As for “AGGCGCGCCCCGGTCCGGCGCTCCCCCCGCATCCCCGAGCCGGGGCGCGCCT (double strand) [HS4-FPIII Vezf1 site duplex]”, the binding signal is 7.38 % DNA bound with Vezf1 (His-Vezf1) (500 uM NSC1012, 640 nM Vezf1); 5.94 % DNA bound with Vezf1 (His-Vezf1) (500 uM T4 (503-1-83), 640 nM Vezf1, T4 effective at 20 uM (IC50)); 5.92 % DNA bound with Vezf1 (His-Vezf1) (500 uM T6 (503-1-71 in text; 501-1-71 in Fig 5B legend), 640 nM Vezf1); 22.6 % DNA bound and 38.5 % DNA bound in the data set with Vezf1 (His-Vezf1). Also, the Kd with Vezf1 (His-Vezf1) (no inhibitor, 25 nM DNA, 50-1000 nM protein) was found to be 640 nM.
